Substitutions are numbered along the chain they refer to.
B1: CD38 targeting reference molecule #1 (CD38TR1) scFv fused to Shiga toxin A subunit (CD38TR1-SLTA) (scFv)
chain: MKEFTLDFSTAKTYVDSLNVIRSAIGTPLQTISSGGTSLLMIDSGSGDNLFAVDVRGIDPEEGRFNNLRLIVERNNLYVTGFVNRTNNVFYRFADFSHVTFPGTTAVTLSGDSSYTTLQRVAGISRTGMQINRHSLTTSYLDLMSHSGTSLTQSVARAMLRFVTVTAEALRFRQIQRGFRTTLDDLSGRSYVMTAEDVDLTLNWGRLSSVLPDYHGQDSVRVGRISFGSINAILGSVALILNCHHHASAVAAEFPKPSTPPGSSGGAPDIQMTQSPSSLSASVGDRVTITCKASEDIYNRLTWYQQKPGKAPKLLISGATSLETGVPSRFSGSGSGTDFTFTISSLQPEDIATYYCQQYWSNPYTFGQGTKVEIKGGGGSQVQLQESGPGLVRPSQTLSLTCTVSGFSLTSYGVHWVRQPPGRGLEWIGVMWRGGSTDYNAAFMSRLNITKDNSKNQVSLRLSSVTAADTAVYYCAKSMITTGFVMDSWGQGSLVTVSS
B2: CD38TM6 formatted into human IgG1 (antibody, V domains shown)
VH: EVQLLESGGGLVQPGGSLRLSCAASGFTFDDYGMTWVRQAPGKGLEWVSGINWNGGSTGYADSVKGRFTISRDNSKNTLYLQMNSLRAEDTAVYYCARGGLFHDSSGYYFGHWGQGTLVTVSS
VL: QSVLTQPPSASGTPGQRVTISCSGSSSNIGNSYVSWYQQLPGTAPKLLIYRNNQRPSGVPDRFSGSKSGTSASLAISGLRSEDEADYYCSAWDDNLSVLFGGGTKLTVL
B3: CD38TM1 formatted into human IgG1 (antibody, V domains shown)
VH: EVQLLESGGGLVQPGGSLRLSCAASGFTFSDYYMSWVRQAPGKGLEWVSAISGSGGSTYYADSVKGRFTISRDNSKNTLYLQMNSLRAEDTAVYYCAREHSNYFYGMDVWGQGTLVTVSS
VL: QSVLTQPPSASGTPGQRVTISCSGSSSNIGSNYVYWYQQLPGTAPKLLIYGNSNRPSGVPDRFSGSKSGTSASLAISGLRSEDEADYYCQSYDSSLSGSGVFGGGTKLTVLG
B4: CD38TM5 formatted into human IgG1 (antibody, V domains shown)
VH: EVQLLESGGGLVQPGGSLRLSCAASGFTFSDYYMNWIRQAPGKGLEWVSSISSSSSYIYYADSVKGRFTISRDNSKNTLYLQMNSLRAEDTAVYYCATEGPYYLYGFDIWGQGTLVTVSS
VL: QSVLTQPPSASGTPGQRVTISCSGSSSNIGSNYVYWYQQLPGTAPKLLIYGNSNRPSGVPDRFSGSKSGTSASLAISGLRSEDEADYYCQSYDNTLSGVIFGGGTKLTVLG
B5: CD38TM2 formatted into human IgG1 (antibody, V domains shown)
VH: EVQLLESGGGLVQPGGSLRLSCAASGFTFSSYWMHWVRQAPGKGLEWVSAISGSGGGTFYADSVKGRFTISRDNSKNTLYLQMNSLRAEDTAVYYCAREGETSFGLDVWGQGTLVTVSS
VL: B4 VL with S31G, G51R, S53N, N54Q, N94S, T95S, G98V, V99S, I100V
B6: CD38TM3 formatted into human IgG1 (antibody, V domains shown)
VH: QVQLVQSGAEVKKPGESLKISCKGSGYSFTSYWIGWVRQMPGKGLEWMGIIYPGDSDTRYSPSFQGQVTISADKSISTAYLQWSSLKASDTAMYYCARGPSTGFWSGNYFDYWGQGTLVTVSS
VL: QTVVTQEPSLTVSPGETVTLTCASSTGAVTSGFYPNWFQQKPGQAPRALIYATNNKYSWTPARFSGSLLGDKAALTLSRVQPEDEADYYCLVYYDGAWVFGGGTKLTVLG

Assays:
[1] = molecular target: recombinant human CD38 (purified, plate-coated) (human, UniProt P28907 43-300); assay: ELISA, plate-coated recombinant CD38, scFv-SLTA fusion titrated
[2] = molecular target: recombinant cynomolgus monkey CD38 (purified, plate-coated) (cynomolgus, UniProt Q5VAN0 44-301); assay: ELISA, plate-coated recombinant cynomolgus CD38, scFv-SLTA fusion titrated
[3] = molecular target: cynomolgus CD38 on cells expressing recombinant cynomolgus CD38 (cynomolgus, UniProt Q5VAN0 1-301)
[4] = molecular target: T1, human CD38 on human multiple myeloma MOLP-8 cells (human, UniProt P28907 1-300); assay: cell-based or functional assay
[5] = molecular target: T1, human CD38 on human multiple myeloma …; assay: flow cytometry titration of IgG1 on MOLP-8 cells, nonlinear fit
[6] = molecular target: T1, human CD38 on human multiple myeloma …; assay: flow cytometry, IgG1 at 100 nM on MOLP-8 cells, MFI over secondary-only control

Binder | Kd [1] [ng/mL] | binding result [2] | FOB (fold-over-background of MFI) [3] [fold over background] | % ADCC (mean) [4] [%] | % CDC (mean) [4] [%] | Kd [5] [nM] | FOB (fold-over-background of MFI) [6] [fold over background]
B1 | 7.7 | no binding | – | – | – | – | –
B2 | – | – | 176 | 50.4 | 34.3 | 4.6 | 104
B3 | – | – | – | 29 | 15 | 32 | –
B4 | – | – | 104 | 35.2 | 4.7 | 34 | 550
B5 | – | – | 272 | – | – | – | –
B6 | – | – | 528 | – | – | – | –
